Measured values taken from patent US20230129258A1 (Bicycle, published 2023).
“And” between values parts separate entries of the source, which are not always exact repeats. Equal values may be shown once. Starred links: 1 amine or outer side, 2 acyl side, 3 side chain; linkers in the order of their positions; H or OH if unused. Positions of bridges follow the written chain, without caps; N, C: chain ends. Non-standard residues stand in square brackets, D forms with d. Primed or numbered codes have the meaning given here. Chains are numbered I, II in the order given. No end group written: not given here. *: point of attachment. dLys(PYA)″ = D-lysine N6-(4-pentynoyl) (D-Lys(PYA)), C#CCCC(=O)NCCCC[C@@H](N[*:1])C(=O)[*:2]; TATA = O=C(CC[*:1])N1CN(C(=O)CC[*:2])CN(C(=O)CC[*:3])C1; γGlu = O=C(O)[C@H](CCC(=O)[*:2])N[*:1]; 1Nal = N[C@@H](Cc1cccc2ccccc12)C(=O)O; d1Nal = N[C@H](Cc1cccc2ccccc12)C(=O)O; Palmitoyl = CCCCCCCCCCCCCCCC(=O)*; Hyp = O=C(O)[C@@H]1C[C@@H](O)CN1; hArg = N=C(N)NCCCC[C@H](N)C(=O)O; tBuAla = CC(C)(C)C[C@H](N)C(=O)O; dK(PYA) = not defined here; NMeA = CN[C@@H](C)C(=O)O; Nle = CCCC[C@H](N)C(=O)O; Pent4ynoyl = C#CCCC(=O)*; dNMeA = CN[C@H](C)C(=O)O

Experiments:
[1] = biological target: T1, CD137 on Jurkat reporter cells (Promega kit CS196005) (UniProt Q07011 24-255, limits assumed); test: cell-based or functional assay
human EphA2 protein [2] = biological target: T2, human EphA2 protein (human, UniProt P29317 25-534, limits assumed, biotinylated); test: SPR (Biacore T200), biotinylated EphA2 captured on streptavidin chip, 25° C.
T2 construct: Construct not described; also called EphA2 (human)

human EphA2 protein [3] = biological target: T2, human EphA2 protein; test: SPR (Biacore), biotinylated human EphA2 captured on a streptavidin chip, BCY13272 as analyte, 1:1 fit
[4] = biological target: T3, human CD137 extracellular domain (human, UniProt Q07011 24-186, biotinylated where captured on the streptavidin chip); test: SPR (Biacore), biotinylated human CD137 captured on a streptavidin chip, BCY13272 as analyte, 1:1 fit; avidity from two CD137 bicycles
T3 construct: extracellular domain; Section 17 says only 'Recombinant human CD137 (R&D systems)'; also called CD137 (human); Recombinant human CD137 (R&D systems)

[5] = biological target: T3, human CD137 extracellular domain; test: SPR (Biacore), biotinylated human CD137 captured on a streptavidin chip, BCY13272 as analyte, 1:1 fit; the text says the reported KD may be an overestimation (avidity)
[6] = biological target: T3, human CD137 extracellular domain; test: SPR (Biacore), biotinylated human CD137 captured on a streptavidin chip, BCY13272 as analyte, 1:1 fit; the text calls the off rate very slow (avidity from two CD137 bicycles)
[7] = biological target: T1, CD137 on Jurkat reporter cells (Promega …); test: cell-based or functional assay; remark: listed apart in the source
[8] = biological target: T1, CD137 on Jurkat reporter cells (Promega …); test: cell-based or functional assay; remark: listed apart in the source
[9] = biological target: T1, CD137 on Jurkat reporter cells (Promega …); test: cell-based or functional assay; remark: listed apart in the source
[10] = biological target: T4, OX40 on Jurkat reporter cells (Promega CS197704) (UniProt P43489 29-277); test: cell-based or functional assay
T4 sequence (looked up): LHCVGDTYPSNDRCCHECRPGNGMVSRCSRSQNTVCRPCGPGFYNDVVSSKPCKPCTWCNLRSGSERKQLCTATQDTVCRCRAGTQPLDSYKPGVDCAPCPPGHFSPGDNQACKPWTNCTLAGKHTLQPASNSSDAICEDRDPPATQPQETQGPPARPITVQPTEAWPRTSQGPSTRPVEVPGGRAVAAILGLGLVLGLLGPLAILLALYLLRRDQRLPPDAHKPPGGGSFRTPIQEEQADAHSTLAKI

T1 sequence (Q07011 24-255 limits assumed): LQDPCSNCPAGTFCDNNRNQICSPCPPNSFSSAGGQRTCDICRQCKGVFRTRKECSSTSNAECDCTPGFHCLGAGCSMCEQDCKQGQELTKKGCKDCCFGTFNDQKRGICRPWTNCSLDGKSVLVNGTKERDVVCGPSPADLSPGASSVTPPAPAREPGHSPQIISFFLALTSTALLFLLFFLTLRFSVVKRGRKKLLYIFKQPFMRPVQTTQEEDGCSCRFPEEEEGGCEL
T3 sequence (Q07011 24-186): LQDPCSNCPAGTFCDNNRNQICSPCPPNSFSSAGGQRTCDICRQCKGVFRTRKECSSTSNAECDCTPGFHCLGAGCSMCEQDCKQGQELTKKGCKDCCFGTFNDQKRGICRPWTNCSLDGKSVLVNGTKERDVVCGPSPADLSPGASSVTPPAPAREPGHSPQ
T2 sequence (P29317 25-534 limits assumed): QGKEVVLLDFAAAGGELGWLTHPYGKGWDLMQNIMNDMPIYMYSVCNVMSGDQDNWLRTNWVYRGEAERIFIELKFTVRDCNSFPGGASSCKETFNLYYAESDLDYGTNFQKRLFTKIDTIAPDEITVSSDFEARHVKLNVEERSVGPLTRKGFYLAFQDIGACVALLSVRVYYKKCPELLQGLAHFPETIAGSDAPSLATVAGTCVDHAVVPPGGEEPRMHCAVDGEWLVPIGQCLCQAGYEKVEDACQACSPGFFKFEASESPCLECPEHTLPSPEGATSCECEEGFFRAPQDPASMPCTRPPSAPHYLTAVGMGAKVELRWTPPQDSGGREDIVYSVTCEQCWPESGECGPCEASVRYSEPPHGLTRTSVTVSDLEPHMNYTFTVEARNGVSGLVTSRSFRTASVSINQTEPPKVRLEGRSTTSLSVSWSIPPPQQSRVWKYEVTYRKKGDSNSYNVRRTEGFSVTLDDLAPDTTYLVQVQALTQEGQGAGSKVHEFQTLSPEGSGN

B1: heterotandem bicyclic peptide complex BCY13272 (peptide)
peptide 1: A[hArg]DC[Hyp]LVNPLCLEP[d1Nal]WTC
peptide 2: Ac-C[tBuAla]PE[dLys(PYA)″]PYCFADPY[Nle]CA
modifications: linker I:4-I:11-I:18, II:1-II:8-II:15 via TATA; not fully specified (bridges); also: 1:2 complex: BCY13118 + 2x BCY8928
notes: also called EphA2/CD137 heterotandem
EC50 (nM), A549 co-culture [1]: 0.147 nM and 0.107 nM and 0.132 nM
Geo mean EC50/cell line, A549 [1]: 0.127 nM
Geo mean EC50/cell line, HT-29 [1]: 0.279 nM
Geo mean EC50/cell line, PC-3 [1]: 0.117 nM
Kd (human EphA2 protein [2]): 2 nM
koff (human EphA2 protein [3]): 0.00102 s⁻¹
kon (human EphA2 protein [3]): 502000 M⁻¹ s⁻¹
kon [4]: 302000 M⁻¹ s⁻¹
Kd [5]: ≤ 0.0331 nM
koff [6]: ≤ 1e-05 s⁻¹

B2: BCY13583 (peptide)
peptide 1: CP[1Nal][dD]CM[hArg]DWSTP[Hyp]WC
peptide 2: Ac-C[tBuAla]PE[dK(PYA)]PYCFADPY[Nle]CA
peptide 3: Ac-C[tBuAla]PE[dK(PYA)]PYCFADPY[Nle]CK
modifications: linker I:1-I:5-I:15 via TATA; linker II:1-II:8-II:15, III:1-III:8-III:15 via TATA (inferred); reading uncertain; also: Alexa Fluor 488 label, site not given here, linker at chain B 5 at chain C 5 to a chain's N-terminus via N-(acid-PEG3)-N-bis(PEG3-azide)
Arithmetic mean EC50 (nM), HT1376 co-culture [7]: 1.7 nM
Arithmetic mean EC50 (nM), MDA-MB-468 co-culture [7]: 0.84 nM
EC50 (nM), HT1376 co-culture [8]: 1.7 nM
Emax (fold induction over background), HT1376 [8]: 63 fold over background

B3: BCY11780 (peptide)
peptide 1: SDKCSAGWLTMCQXLHLCPSH
peptide 2: CXPEXPYCFADPYXCA
modifications: BCY8928: Ac-(SEQ ID NO: 11)-A; TATA; linker at dLys4; BCY10861: Ac-SDK-(SEQ ID NO: 53)-PSH; TATA; linker at Lys(PYA)9
EC50 (nM), RKO co-culture [9]: 1.9 nM
Fold Induction over background, RKO co-culture [9]: 13 fold

B4: BCY12967 (peptide)
peptide 1: CP[1Nal]DCM[hArg]DWSTP[Hyp]WC
peptide 2: ACLYSPCWHPLNDCAK(Pent4ynoyl)
modifications: linker I:1-I:5-I:15 via TATA; linker II:2-II:7-II:14 via TATA (inferred); not fully specified (some residues); also: chain 1 N-terminus and chain 2 C-terminal Lys(PYA) joined by N-(acid-PEG3)-N-bis(PEG3-azide) linker
EC50 (nM), Promega OX40 cell-activity assay in co-culture with tumor cells [10]: 0.83 nM

B5: BCY12487 (peptide)
peptide 1: CP[1Nal]DCM[hArg]DWSTP[Hyp]WC
peptide 2: Ac-C[tBuAla]PE[dK](Pent4ynoyl)PYCFAEPY[Nle]C
modifications: linker I:1-I:5-I:15, II:1-II:8-II:15 via TATA; not fully specified (some residues, bridges); also: chain 1 N-terminus and chain 2 dLys(PYA)4 joined by N-(acid-PEG3)-N-bis(PEG3-azide) linker
EC50 (nM), HT1376 co-culture [8]: 13 nM
Emax (fold induction over background), HT1376 [8]: 12 fold over background

B6: BCY12490 (peptide)
peptide 1: CPXKCMXDWSTPXWC
peptide 2: CXPEXPYCFADPYXCA
modifications: BCY8928: Ac-(SEQ ID NO: 11)-A; TATA; linker at dLys(PYA)4; BCY12024: Ac-(SEQ ID NO: 14); TATA; linker at dLys3
EC50 (nM), HT1376 co-culture [8]: 0.23 nM
Emax (fold induction over background), HT1376 [8]: 70 fold over background

B7: BCY12589 (peptide)
peptide 1: {Palmitoyl-γGlu-γGlu}-CP[1Nal]KCM[hArg]DWSTP[Hyp]WC
peptide 2: Ac-C[tBuAla]PE[dK](Pent4ynoyl)PYCFADPY[Nle]CA
modifications: linker I:1-I:5-I:15, II:1-II:8-II:15 via TATA; not fully specified; also: chain 2 present twice on linker, Nectin-4:CD137 1:2, linker at B5 via N-(acid-PEG3)-N-bis(PEG3-azide), other end not in the chain
EC50 (nM), HT1376 co-culture [8]: 0.44 nM
Emax (fold induction over background), HT1376 [8]: 79 fold over background

B8: BCY12760 (peptide)
peptide 1: CP[1Nal]DCM[hArg]DWSTP[Hyp]WC
peptide 2: Ac-C[tBuAla]PE[dK](Pent4ynoyl)PYCFAD[NMeA]Y[Nle]C
modifications: linker I:1-I:5-I:15, II:1-II:8-II:15 via TATA; not fully specified (some residues, bridges); also: chain 1 N-terminus and chain 2 dLys(PYA)4 joined by N-(acid-PEG3)-N-bis(PEG3-azide) linker
EC50 (nM), HT1376 co-culture [8]: 1.8 nM
Emax (fold induction over background), HT1376 [8]: 76 fold over background

B9: BCY12761 (peptide)
peptide 1: CP[1Nal]DCM[hArg]DWSTP[Hyp]WC
peptide 2: Ac-C[tBuAla]PE[dK](Pent4ynoyl)PYCFAD[dNMeA]Y[Nle]C
modifications: linker I:1-I:5-I:15, II:1-II:8-II:15 via TATA; not fully specified (some residues, bridges); also: chain 1 N-terminus and chain 2 dLys(PYA)4 joined by N-(acid-PEG3)-N-bis(PEG3-azide) linker
EC50 (nM), HT1376 co-culture [8]: 0.37 nM
Emax (fold induction over background), HT1376 [8]: 76 fold over background
